According to US20120149104A1:

How the values were obtained:
[1] = target: SNAP-25 peptide comprising amino acids 134-197 of SEQ ID NO: 5 (human); test: SPR (BIAcore 3000), peptide on CM5 chip, antibody in flow
[2] = target: SNAP-25 peptide comprising amino acids 134-206 of SEQ ID NO: 5 (human); test: as above

| Substance | Kd [1] | koff [1] | kon [1] | Kd [2] | koff [2] | kon [2] |
| --- | --- | --- | --- | --- | --- | --- |
| MC-6050 mouse α-SNAP-25 monoclonal antibody (Research & Diagnostic Antibodies) | 0.497 nM | 0.000882 s⁻¹ | 1.78e+06 M⁻¹ s⁻¹ | 19800 nM | 0.00607 s⁻¹ | 306 M⁻¹ s⁻¹ |
| MC-6053 mouse α-SNAP-25 monoclonal antibody (Research & Diagnostic Antibodies) | 0.508 nM | 0.00118 s⁻¹ | 2.32e+06 M⁻¹ s⁻¹ | 240 nM | 2.56e-05 s⁻¹ | – |
